Consider two molecules from US20050233963A1 (SCIENCE AND TECHNOLOGY CORPORATION UNM, published 2005).

Assay [1] deals with T1, hsc70 (constitutively expressed form of hsp70) (UniProt P11142 1-646).
T1 construct: also called hs70 (printed for both hsp70 and hsc70); pure hsc70
In words: far-western, GST fusion probe on blotted 20 ng protein.

Assay [2] has as its target T2, hsp70 (heat shock protein 70) (UniProt P0DMV8 1-641).
T2 construct: also called hs70 (printed for both hsp70 and hsc70); pure hsp70
The description is as above.

T2 sequence (P0DMV8 whole entry): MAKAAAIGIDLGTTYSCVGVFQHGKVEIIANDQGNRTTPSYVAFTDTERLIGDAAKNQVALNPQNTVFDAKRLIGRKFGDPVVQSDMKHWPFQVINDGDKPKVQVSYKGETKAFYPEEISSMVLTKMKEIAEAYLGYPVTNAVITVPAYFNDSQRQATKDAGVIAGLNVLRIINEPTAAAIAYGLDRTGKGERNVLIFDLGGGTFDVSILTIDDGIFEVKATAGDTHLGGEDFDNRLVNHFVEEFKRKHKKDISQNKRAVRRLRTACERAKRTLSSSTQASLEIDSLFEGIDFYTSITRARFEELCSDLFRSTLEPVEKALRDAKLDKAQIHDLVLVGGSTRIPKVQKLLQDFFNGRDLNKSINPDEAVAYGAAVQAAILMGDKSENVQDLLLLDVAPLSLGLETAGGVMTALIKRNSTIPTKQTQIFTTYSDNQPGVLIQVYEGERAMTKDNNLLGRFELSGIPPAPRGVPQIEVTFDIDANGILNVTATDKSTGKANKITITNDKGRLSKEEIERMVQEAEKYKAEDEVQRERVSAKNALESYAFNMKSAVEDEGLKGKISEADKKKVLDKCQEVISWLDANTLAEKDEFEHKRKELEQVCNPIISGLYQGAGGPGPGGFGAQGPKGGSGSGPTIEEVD
T1 sequence (P11142 whole entry): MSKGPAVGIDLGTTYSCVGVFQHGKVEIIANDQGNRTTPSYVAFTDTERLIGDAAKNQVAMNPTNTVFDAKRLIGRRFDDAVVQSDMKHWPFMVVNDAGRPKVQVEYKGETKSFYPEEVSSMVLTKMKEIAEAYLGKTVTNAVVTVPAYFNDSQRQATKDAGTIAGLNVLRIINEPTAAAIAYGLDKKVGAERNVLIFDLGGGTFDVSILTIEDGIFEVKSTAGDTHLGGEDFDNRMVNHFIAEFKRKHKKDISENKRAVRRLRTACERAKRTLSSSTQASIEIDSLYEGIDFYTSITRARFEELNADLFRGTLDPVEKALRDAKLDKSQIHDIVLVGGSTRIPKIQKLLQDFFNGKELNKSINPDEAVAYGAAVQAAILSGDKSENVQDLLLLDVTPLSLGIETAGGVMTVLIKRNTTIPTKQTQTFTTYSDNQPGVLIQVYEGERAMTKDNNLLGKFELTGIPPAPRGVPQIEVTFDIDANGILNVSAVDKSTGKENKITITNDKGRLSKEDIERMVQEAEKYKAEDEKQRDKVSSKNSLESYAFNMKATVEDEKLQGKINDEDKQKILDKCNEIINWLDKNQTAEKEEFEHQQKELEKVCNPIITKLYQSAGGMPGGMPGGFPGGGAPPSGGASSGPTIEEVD

B1: GST-UBP C1/2 (a.a. 145-313) (other, UniProt O43765 145-313, looked up)
chain: VQDCERAICIDPAYSKAYGRMGLALSSLNKHVEAVAYYKKALELDPDNETYKSNLKIAELKLREAPSPTGGVGSFDIAGLLNNPGFMSMASNLMNNPQIQQLMSGMISGGNNPLGTPGTSPSQNDLASLIQAGQQFAQQMQQQNPELIEQLRSQIRSRTPSASNDDQQE
notes: also called C/2; not shown: glutathione S-transferase (GST) fusion partner
Take B1: the binding result in assay [1] and in assay [2] was “no binding” each time.

B2: GST-UBP N1/2 (a.a. 1-145) (other, UniProt O43765 1-145, looked up)
chain: MDNKKRLAYAIIQFLHDQLRHGGLSSDAQESLEVAIQCLETAFGVTVEDSDLALPQTLPEIFEAAATGKEMPQDLRSPARTPPSEEDSAEAERLKTEGNEQMKVENFEAAVHFYGKAIELNPANAVYFCNRAAAYSKLGNYAGAV
notes: not shown: glutathione S-transferase (GST) fusion partner
As to B2, the binding result in assay [1] and in assay [2] was “no binding” throughout.
